This passage reports Kd results from paper PMC9754112 (mAbs, 2022).

Assay [1] concerns the target recombinant human CTLA-4-His-tag protein (Homo sapiens (Human).) (UniProt P16410). The experiment in a line: SPR.
Assay [2] deals with recombinant human CTLA-4-His-tag protein (Homo sapiens (Human)., UniProt P16410). The experiment in a line: SPR. On the technique in general: SPR reads the build-up and loss of mass on a sensor chip optically.
Chain of recombinant human CTLA-4-His-tag protein (P16410 36-161): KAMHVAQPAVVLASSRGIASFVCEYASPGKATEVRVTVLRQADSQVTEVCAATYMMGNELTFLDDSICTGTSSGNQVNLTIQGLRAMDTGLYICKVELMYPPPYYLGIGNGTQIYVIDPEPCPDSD

In the case of ipilimumab (antibody), the Kd (commonly the concentration at which binding is half-saturated) in assay [1] amounted to 16.1 nM.

B1: JS007, humanized IgG1 anti-CTLA-4 monoclonal antibody (antibody, V domains shown)
VH: QVQLQESGPGLVKPSQTLSLTCTVSAYSITSGYYWNWIRQHPGKGLEWIGYIGYDGSNNYNPSLKSRVTISRDTSKNQFSLKLSSVTAADTAVYYCARDYYSGYFDSWGQGTTLTVSS
VL: DIQMTQSPSSLSASVGDRVTITCRASQNVGTYVAWYQQKPGKVPKPLIYSTSYRYSGVPSRFSGSGSGTDFTLTISSLQPEDVATYFCHQYDTYPLTFGAGTKLELK
Consider B1, for which, in assay [2], the Kd amounted to 0.21 nM.
